Measured values reported in the Human Domainome abundance scans (Beltran et al. 2025).
± gives the uncertainty stated by the source.

B1: Nuclear receptor subfamily 1 group D member 2, residues 103 to 171; numbered along this chain, Q14995 (parent)
chain: CKVCGDVASGFHYGVHACEGCKGFFRRSIQQNIQYKKCLKNENCSIMRMNRNRCQQCRFKKCLSVGMSR

Variants of: B1
Experiment: abundance fitness (aPCA) (normalised: wild type 0, dead -1); higher = more abundant; growth selection in yeast, the domain comes from the species named
Settings: Homo sapiens

Variant	abundance fitness
N50P	-0.45 ± 0.16
Y13T	-0.572 ± 0.089
R51Q	-0.063 ± 0.23
I33A	-0.377 ± 0.058
R26I	0.342 ± 0.22
C62Y	-0.492 ± 0.31
G20D	0.531 ± 0.19
F25I	-0.152 ± 0.18
C57V	-1.01 ± 0.37
D6G	-0.535 ± 0.34
I33W	-0.668 ± 0.12
K61W	-0.746 ± 0.21
C38G	-0.836 ± 0.14
N32H	-0.566 ± 0.14
Q55V	-0.425 ± 0.13
C18G	-0.813 ± 0.14
I33F	-0.38 ± 0.082
Q55R	-0.418 ± 0.084
S68D	-0.049 ± 0.22
K40C	-0.615 ± 0.19
V15T	-0.961 ± 0.47
N50Q	0.032 ± 0.11
V65R	-0.895 ± 0.14
R53D	0.318 ± 0.12

Variant	abundance fitness
R58A	-0.272 ± 0.12
N32Y	-0.776 ± 0.17
A8F	-0.855 ± 0.43
S45P	-0.166 ± 0.13
Y13A	-0.459 ± 0.09
Q56R	-0.127 ± 0.076
H16G	-0.412 ± 0.073
C57K	-0.687 ± 0.46
K60I	0.406 ± 0.2
N32R	-0.423 ± 0.068
F25E	-0.634 ± 0.48
R48W	-0.018 ± 0.1
N43R	-0.12 ± 0.068
V15R	-0.819 ± 0.1
H12N	-0.161 ± 0.17
V7W	-0.195 ± 0.12
S64R	-0.334 ± 0.1
R27H	0.305 ± 0.27
H16C	-0.411 ± 0.12
H12G	-0.421 ± 0.075
M67K	-0.688 ± 0.14
I29Y	-0.813 ± 0.36
C54M	-0.618 ± 0.14
K61M	-0.776 ± 0.34

Variant	abundance fitness
L63P	-0.789 ± 0.33
N32G	-0.074 ± 0.046
L39E	0.262 ± 0.13
N52R	-0.805 ± 0.28
C18S	-0.812 ± 0.28
G5A	-0.621 ± 0.1
K60N	-0.056 ± 0.21
R26N	0.135 ± 0.18
V7R	0.032 ± 0.061
K2E	-0.174 ± 0.14
L39D	0.321 ± 0.12
S68H	-0.347 ± 0.15
G5T	-0.802 ± 0.13
G5H	-0.623 ± 0.18
Q56W	0.39 ± 0.084
H12A	-0.28 ± 0.081
N50L	-0.45 ± 0.082
M49K	0.12 ± 0.23
V7D	-0.001 ± 0.15
I46F	-0.613 ± 0.088
L63A	-0.071 ± 0.26
K36V	-0.26 ± 0.12
F25V	-0.785 ± 0.22
M67W	-0.415 ± 0.2

Variant	abundance fitness
S45N	0.261 ± 0.19
N43A	0.01 ± 0.085
L63M	-0.914 ± 0.33
R48E	0.125 ± 0.13
E19R	-0.058 ± 0.27
K36T	-0.292 ± 0.2
V65A	-0.306 ± 0.092
A17M	-0.89 ± 0.21
Q56L	-0.022 ± 0.08
S28T	0.24 ± 0.37
K36P	-0.199 ± 0.16
A17V	-0.222 ± 0.058
R26F	-0.326 ± 0.43
R69W	0.288 ± 0.17
I46M	-0.093 ± 0.26
H16N	-0.297 ± 0.19
M67H	-0.973 ± 0.33
V65W	-1.02 ± 0.37
K60M	-0.141 ± 0.14
C54N	-0.722 ± 0.38
R48K	-0.005 ± 0.13
N41D	-0.225 ± 0.24
G66D	-0.866 ± 0.41
V65I	-0.308 ± 0.12

Variant	abundance fitness
K2M	-0.401 ± 0.2
R26L	-0.226 ± 0.14
H16T	-0.1 ± 0.12
D6Q	-0.513 ± 0.2
N50F	-0.107 ± 0.13
N41Y	-0.492 ± 0.35
C38W	-0.521 ± 0.13
Q31T	-0.238 ± 0.11
E42R	-0.639 ± 0.11
A17Q	-0.902 ± 0.32
I29W	-0.412 ± 0.13
C57D	-0.689 ± 0.47
G14T	-0.828 ± 0.38
I46K	-0.789 ± 0.38
K60G	-0.428 ± 0.15
M67T	-0.822 ± 0.24
G66L	-0.459 ± 0.38
R53Q	0.364 ± 0.077
Q30I	-0.553 ± 0.5
Q31K	-0.391 ± 0.25
C62E	-0.456 ± 0.27
A8S	-0.265 ± 0.073
N52W	-0.706 ± 0.4
R51Y	-0.077 ± 0.21

Variant	abundance fitness
N50I	-0.415 ± 0.12
C38L	-1.01 ± 0.22
C38A	-0.74 ± 0.26
Q56T	-0.013 ± 0.11
N41T	-0.047 ± 0.12
S45T	-0.133 ± 0.13
C62S	-0.757 ± 0.16
M47D	0.283 ± 0.11
E19V	-0.669 ± 0.37
R27T	-0.034 ± 0.24
C57L	-0.708 ± 0.16
G5M	-0.226 ± 0.11
K2L	-0.491 ± 0.12
M47K	-0.185 ± 0.25
Q31P	-0.457 ± 0.15
K37H	-0.241 ± 0.18
E42Q	-0.23 ± 0.19
E42L	-0.847 ± 0.15
C1F	-0.451 ± 0.32
Y13I	-0.73 ± 0.12
C57F	-0.806 ± 0.27
K40H	-0.12 ± 0.13
G14P	-0.835 ± 0.24
G5F	-0.918 ± 0.2

Variant	abundance fitness
N41V	-0.446 ± 0.13
N41P	-0.264 ± 0.13
V65K	-0.851 ± 0.24
S45A	-0.424 ± 0.14
K40D	0.115 ± 0.09
C1E	-0.613 ± 0.48
N43P	-0.472 ± 0.15
K36D	-0.439 ± 0.31
K61V	-0.886 ± 0.3
E42N	-0.004 ± 0.12
D6T	-0.47 ± 0.11
V7P	-0.295 ± 0.12
C4G	-0.795 ± 0.19
K40S	0.092 ± 0.056
N50K	-0.346 ± 0.15
A17W	-0.702 ± 0.18
Q55I	-0.611 ± 0.19
I29K	-0.98 ± 0.29
N43H	-0.37 ± 0.14
R26H	-0.359 ± 0.41
A17C	0.092 ± 0.041
M47I	-0.421 ± 0.24
S68M	-0.023 ± 0.2
